The values below come from article PMC3506659, “Snm1B Interacts with PSF2” (PLoS ONE, 2012).

Experiment [1] deals with N-terminal Myc epitope-tagged human PSF2 (Myc-PSF2) (UniProt Q9Y248). In words: co-immunoprecipitation (IP anti-Flag, IB anti-Myc), band ratio. The settings on record: 293T cells, transient expression.
The next experiment concerns the target T1, Flag-Snm1B^Δ222–363 (human, UniProt Q9H816 1-221; Q9H816 364-532).
T1 construct: RGR is my translation read in frame from its first base; source: 293T, transiently transfected (pLPC), in lysate; not shown: Flag, N-terminal, kept
T1 chain: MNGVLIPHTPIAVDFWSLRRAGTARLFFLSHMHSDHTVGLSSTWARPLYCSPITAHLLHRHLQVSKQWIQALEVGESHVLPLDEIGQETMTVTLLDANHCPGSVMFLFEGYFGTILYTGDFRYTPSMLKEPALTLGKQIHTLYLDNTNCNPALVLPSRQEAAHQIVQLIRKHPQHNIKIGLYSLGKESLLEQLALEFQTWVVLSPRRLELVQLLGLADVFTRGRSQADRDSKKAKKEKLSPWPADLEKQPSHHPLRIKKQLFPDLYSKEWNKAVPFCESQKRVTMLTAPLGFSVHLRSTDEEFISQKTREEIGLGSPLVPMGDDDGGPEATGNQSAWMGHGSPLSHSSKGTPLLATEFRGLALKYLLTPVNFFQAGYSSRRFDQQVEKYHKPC
In words: co-IP; 293T transiently co-transfected, RIPA lysate, Flag-Snm1B immunoprecipitated with anti-Flag M2 affinity gel at 4°C overnight, immunoblot for Myc-PSF2 or Mus81; with or without co-expressed Myc-PSF2 or HA-Mus81. Conditions: partners not purified. (Immunoblotting shows a protein as a band on a membrane.)

A further experiment has as its target T2, GFP-Flag-Snm1B^221–363 (human, UniProt Q9H816 221-363).
T2 construct: Named GFP-Flag-Snm1B: the Flag tag is at the 5′ end of the Snm1B fragment, GFP is fused in frame; also called PSF2 BR1; source: 293T, transiently transfected (pEGFP-C3), in lysate; not shown: Flag, N-terminal, kept
T2 sequence (looked up): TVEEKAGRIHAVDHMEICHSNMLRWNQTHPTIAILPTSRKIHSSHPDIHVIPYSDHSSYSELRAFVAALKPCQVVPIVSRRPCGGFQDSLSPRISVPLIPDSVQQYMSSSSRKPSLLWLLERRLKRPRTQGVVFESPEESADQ
Nature of the experiment: co-IP; 293T transiently co-transfected, RIPA lysate, GFP-Flag-Snm1B fragments immunoprecipitated with anti-GFP antibody and GammaBind G Sepharose, immunoblot anti-Myc. The settings on record: partners not purified.

Experiment [2] deals with T3, N-terminal Flag epitope-tagged human Snm1B (Flag-Snm1B) (human, UniProt Q9H816 1-532).
T3 construct: also called Flag-Snm1B-WT; Flag-Snm1B^WT; source: 293T, transiently transfected (pLPC), in lysate; not shown: Flag, N-terminal, kept
T3 sequence (looked up): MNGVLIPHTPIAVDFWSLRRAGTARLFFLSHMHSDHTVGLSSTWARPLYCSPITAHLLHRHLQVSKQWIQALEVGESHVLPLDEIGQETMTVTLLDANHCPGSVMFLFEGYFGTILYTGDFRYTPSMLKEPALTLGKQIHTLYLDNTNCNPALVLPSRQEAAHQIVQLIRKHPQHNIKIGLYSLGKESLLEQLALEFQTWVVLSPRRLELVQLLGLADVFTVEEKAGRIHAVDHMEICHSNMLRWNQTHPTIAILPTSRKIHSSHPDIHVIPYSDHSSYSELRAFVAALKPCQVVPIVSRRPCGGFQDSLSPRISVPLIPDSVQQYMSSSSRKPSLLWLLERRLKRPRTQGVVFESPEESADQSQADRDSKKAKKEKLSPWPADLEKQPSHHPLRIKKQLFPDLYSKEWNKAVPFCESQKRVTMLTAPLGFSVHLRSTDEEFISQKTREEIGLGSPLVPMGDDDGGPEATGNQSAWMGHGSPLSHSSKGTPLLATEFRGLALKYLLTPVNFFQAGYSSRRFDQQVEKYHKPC
In words: co-IP; 293T transiently co-transfected, RIPA lysate, Flag-Snm1B immunoprecipitated with anti-Flag M2 affinity gel at 4°C overnight, immunoblot for Myc-PSF2 or Mus81; with or without co-expressed Myc-PSF2 or HA-Mus81. The settings on record: partners not purified.

Turning to “N-terminal Flag epitope-tagged human Snm1B (Flag-Snm1B) (from UniProt Q9H816) N2”, the other: normalized Myc-PSF2:Flag-Snm1B ratio was 1.05 in experiment [1] (no Myc-TRF2 co-expressed, parent: 1) and 0.81 in experiment [1] (wild type Myc-TRF2 co-expressed (parent value is Flag-Snm1B WT + Myc-TRF2 WT + Myc-PSF2 lane), parent: 0.41).

B1: N-terminal Myc epitope-tagged human PSF2 (Myc-PSF2) (natural protein, UniProt Q9Y248 1-185, looked up)
chain: MDAAEVEFLAEKELVTIIPNFSLDKIYLIGGDLGPFNPGLPVEVPLWLAINLKQRQKCRLLPPEWMDVEKLEKMRDHERKEETFTPMPSPYYMELTKLLLNHASDNIPKADEIRTLVKDMWDTRIAKLRVSADSFVRQQEAHAKLDNLTLMEINTSGTFLTQALNHMYKLRTNLQPLESTQSQDF
notes: PSF2, subunit of the GINS complex, human, full length; amplified from clone MGC-673 (ATCC); source: 293T, transiently transfected (pCMV-MYC), in lysate; not shown: Myc, N-terminal, kept
Turning to B1, the “fold of co-immunoprecipitated Myc-PSF2 against Flag-Snm1B WT” value with Flag-Snm1B^Δ222–363 is around 6 fold less. Also, the “fold of co-immunoprecipitated Myc-PSF2 against GFP-Flag-Snm1B 413–532” value in the experiment with GFP-Flag-Snm1B^221–363 was around 3 fold more.

B2: HA epitope-tagged Mus81 (HA-Mus81) (natural protein, UniProt Q96NY9 1-551, looked up)
chain: MAAPVRLGRKRPLPACPNPLFVRWLTEWRDEATRSRRRTRFVFQKALRSLRRYPLPLRSGKEAKILQHFGDGLCRMLDERLQRHRTSGGDHAPDSPSGENSPAPQGRLAEVQDSSMPVPAQPKAGGSGSYWPARHSGARVILLVLYREHLNPNGHHFLTKEELLQRCAQKSPRVAPGSARPWPALRSLLHRNLVLRTHQPARYSLTPEGLELAQKLAESEGLSLLNVGIGPKEPPGEETAVPGAASAELASEAGVQQQPLELRPGEYRVLLCVDIGETRGGGHRPELLRELQRLHVTHTVRKLHVGDFVWVAQETNPRDPANPGELVLDHIVERKRLDDLCSSIIDGRFREQKFRLKRCGLERRVYLVEEHGSVHNLSLPESTLLQAVTNTQVIDGFFVKRTADIKESAAYLALLTRGLQRLYQGHTLRSRPWGTPGNPESGAMTSPNPLCSLLTFSDFNAGAIKNKAQSVREVFARQLMQVRGVSGEKAAALVDRYSTPASLLAAYDACATPKEQETLLSTIKCGRLQRNLGPALSRTLSQLYCSYGPLT
notes: Mus81, subunit of the Mus81/Eme1 endonuclease; amplified from clone MGC:14953 (Imagenes); Detected with an anti-Mus81 antibody, which may also see the endogenous Mus81 of 293T cells; source: 293T, transiently transfected (pcDNA3), in lysate; not shown: HA, N-terminal, kept
B2: in experiment [2], the “fold increase of co-immunoprecipitated Mus81 with Myc-PSF2 against without Myc-PSF2” value was above 2 fold.
